assay: soluble on expression in E. coli; label from the status in PepcDB or PDB records

| Sequence | soluble on expression in E. coli |
| --- | --- |
| MSNEQLADLTQPQRDRLAFVELRVRFIGEIRRQDLVTRFGIQSAAASRDLALYKELAPGNIDYDSKGKSYVLGPDFRPVFDFPPERVLSWLTQGFGDGEPMRLKAWVASESPSRLTHPDLDVLASVTRAIHQECPLGIEYHSISSGRTEREIVPFALIDNGLRWHVRAFDRKSQEFRDFVITRIKRPVLIRDAEVQSHERSDQDIQWTRIVELEMVPHPDQPRPEITEMDYGMVRGSLRMKLRAATAGYILRQWSVDCSPDHSLRGYEFRLWLKDHLALYGVKNAVLAPGYRSPDQNKGEQ | soluble |
| MGSDKIHHHHHHMGIGIIIASHGKFAEGIHQSGSMIFGEQEKVQVVTFMPNEGPDDLYGHFNNAIAQFDADDEVLVLADLWSGSPFNQASRVMGENPERKMAIITGLNLPMLIQAYTERMMDANAGVEQVAANIIKESKEGIKALPEELNPVVEATPVAGVPADVPAEVKQSGSIPEGTVIGDGKLKINLARIDTRLLHGQVATAWTPASKANRIIVASDEVSKDELRKQLIKQAAPGGVKANVVPISKLIEVAKDPRFGNTRALILFETVQDALRAIEGGVEIPELNVGSMAHSTGKTMVNNVLSMDKDDVAAFEKLRDLGVSFDVRKVPNDAKKNLFDLINKANVK | not soluble |
| MGSDKIHHHHHHMKLRKQLAQQIVTSIKDVCQQDINFINTKGIIFASTNPKRVGEFHEIGLKVAQTGQMIEVTDQESYFGTQAGINIPFYYNCELLATIGISGNPNQVGKYALLAQKMTRLILKEHELDYLDFGRKNEASIVLHHLVEGRELDYYYLNQFLNQYHLSEKTDYRLLTFEINSQKQKLLLSQSEMSLLNFFDKLDTAIYTFNYPNQYWLLLSDHMFDYYYPNILSKFECEKGLYKVGIGQKSSLSLLKRSYETSILALKALKGQQKVNLVDDLDLELLLTSIDSNIKQYVLNKALVNLSENDKILLNSYFKHNLSLKECSQELFIHKNTVQYRLNKIYESTQLNPRNFKDATLLYLALKSEDINLHKL | not soluble |
| MKLPVVESFFSLQGEGKRIGKPSLFLRLGGCNLSCKGFNCKTLLNDEILTGCDSLYAVHPKFKTSWDYYNEPKPLIERLEDLAPNYKDFDFILTGGEPSLYFNNPILISVLEHFYRQKIPLCVESNGSIFFEFSPILKELHFTLSVKLSFSLEEESKRIHLKALQNILNNAKSAHFKFVLESQNAAQSIIEIQSLLKQLSLKNNEIFLMPLGTNNNELDKNLKTLAPLAIKHGFRLSDRLHIRLWDNQKGF | not soluble |
| MGSDKIHHHHHHMKHTEMSLTDKKIIITRAQEQTSEARKIFRKNGAEVFDLPSLVIGPPDDWAPLDDALKKISTFDWIIFSSANGVRNVEDRMREIGLSLSKISKTIQIAAVGRKTASLLSDMDAEISFVPPSFVADSLLEYFPQNQKGLKLFIPRVQTGGRSILSDSFRLNGAEVTEVAAYESSCPKDVPQKTIEALKSGEIDIIAFTSGKTVINTVSLFNKYFGGNWFKLIEKIKLVSIGPQTTISCKKLIRKPDKEAEPHDLEGLLNACLELKFN | not soluble |
| MGHHHHHHSHRASRKICFVCKKKGAAINCQKDQCLRNFHLPCGQERGCLSQFFGEYKSFCDKHRPTQNIQHGHVGEESCILCCEDLSQQSVENIQSPCCSQAIYHRKCIQKYAHTSAKHFFKCPQCNNRKEFPQEMLRMGIHIPDR | not soluble |
| MTTARPAKARNEGQWALGHREPLNANEELKKAGNPLDVRERIENIYAKQGFDSIDKTDLRGRFRWWGLYTQREQGYDGTWTGDDNIDKLEAKYFMMRVRCDGGALSAAALRTLGQISTEFARDTADISDRQNVQYHWIEVENVPEIWRRLDDVGLQTTEACGDCPRVVLGSPLAGESLDEVLDPTWAIEEIVRRYIGKPDFADLPRKYKTAISGLQDVAHEINDVAFIGVNHPEHGPGLDLWVGGGLSTNPMLAQRVGAWVPLGEVPEVWAAVTSVFRDYGYRRLRAKARLKFLIKDWGIAKFREVLETEYLKRPLIDGPAPEPVKHPIDHVGVQRLKNGLNAVGVAPIAGRVSGTILTAVADLMARAGSDRIRFTPYQKLVILDIPDALLDDLIAGLDALGLQSRPSHWRRNLMACSGIEFCKLSFAETRVRAQHLVPELERRLEDINSQLDVPITVNINGCPNSCARIQIADIGFKGQMIDDGHGGSVEGFQVHLGGHLGLDAGFGRKLRQHKVTSDELGDYIDRVVRNFVKHRSEGERFAQWVIRAEEDDLR | soluble |
| MTSSLVLILAPLALVAIGEAAFGNSSKIFEIPGLEVMASDKYPHFTTIETVSRTKVHRHRREVIAGQIYDWNSYEIPFQIWGGDYNFQSLIRRGIRMWEDSTCLRFKENQQSRDAIRYVLEKGDSCFTEYIGRNGGHQDIIIGSECAEEYVVAHETGHALGFWHTHQRPDRDRHISINWKNVMEEATASFMPFRSMLQAFGIRQVSPRRVPYDYGSLMHYHAVAHAVKVSDFTIVPKELKYVTTMGTEKMAFLDAKVINDIYCPNACQGRNHLNCLAGGYPDPNNCNVCRCPEGLGGPDCGRLQPSPCGGEIHASDQWQTLSSPSGRDVHCYWRISVPEGSRVRFRLSDGEFPCSYGCQSYVEIKHKLDVRLTGFRSCCYRPKEDTVSESNQIFVIYHPNGRTARFSLRFRRQA | not soluble |
| MSLAEPRNGESAGADAVLTKAIEDALGNGTGSVTVDLPQAEGKAKAGDLVTLRYTMTTADGALVATTEESVAADKGRPRSVAFTARSRYRPEEIVAGGEGNLPGVAEAVIGMAPGEKKHLSLSADKAFGARDPQRVVTMATVKSLPRTVAIPAADYVKNFGALPVVGKELPVVPYFPARVIEVTEQQAKLQLLARDGERFTESFGAVETKVDGESVKIRLVPTIGAPFEFRGARGTITAAGEENFTVDFNHPLADRSVVLDLEVVSLTKGEKLAAISVPWLENHDQGLEKAKQEEKPAVLVLYADWCQWCKKLFGETAEDPRIKAVSDRFVWIRVNSDKEKAYKEQYGQDGYPLIVLLDRQGKVAKKLDGFRDAAGLREELNALLEGHHHHHH | soluble |
| MTHPLYIFDLDETLINGDCAMIWNEFLVDKGIVTTPDFLEEDKRLMTLYSRGLMDMEDYLIFAMSPLKNIPTDQVEILIEECVNERILPLLFPEAKILIHQLKADNVDMIVISASVSFLVKIVAKNIGIKHAIGIDLKEKNGCYTRHILGVPSYREGKVSRLTEWLNGGDKTYSALHFYTDSINDLPLCLYADHTYLVNPCEQLAVYSKKKNWPILAWGSQ | not soluble |
| MKREDLLRHLAETEVWDMIVIGGGATGLGTAVEAAGRGYRTLLLEQGDFAQGTSSRSTKLIHGGVRYLQQGNLTLVLEALRERGLLIRNAPHLVHNLSFVVPLYDWWEGPFYGIGLKLYDVLAGKLGLGPSRLLSREETLGHIPTVEPHGLRGGVIYHDGQFDDSRLAISLALTLADLGGVALNHFPVTGIISRDGLVAGVEARDRETGGAFRIMGRAVINAAGPFVDGVRRLADPAARDLIAPSQGVHLVLDGSFLPGDSAIMVPHTDDGRVLFAVPWHGRTVVGTTDTPIPAAGLEPRPLPEEIDFLLSHAARYLTRHPERRDVLSTFAGIRPLVRSDSGGDTASLSRDHTLLVEGSGLVTIAGGKWTTYRKMGEDTVTAAAQVAGLDHRPSVTETLRIHGWQEDATEGPLQVYGSDAAALEQLLRENAAWREPLHPALPYCAGEVVWGVRHEWARTVEDVLARRTRALLLDARAAVAAAPRVAELMARELGRDSDWQAAQVAAFTHLARGYLPELEHHHHHH | not soluble |
| MEITDVRLRRVETDGRMKAISSITIDGEFVIHDIRVIDGNEGLFVAMPSKRTPDGEFRDIAHPINSGTRAKIQEAVLAAYEVADEPAVNEESSADESVVEEN | not soluble |
| MTVGLGMPQPPAPTLAPRRATRQLMVGNVGVGSDHPVSVQSMCTTKTHDVNSTLQQIAELTAAGCDIVRVACPRQEDADALAEIARHSQIPVVADIHFQPRYIFAAIDAGCAAVRVNPGNIKEFDGRVGEVAKAAGAAGIPIRIGVNAGSLDKRFMEKYGKATPEALVESALWEASLFEEHGFGDIKISVKHNDPVVMVAAYELLAARCDYPLHLGVTEAGPAFQGTIKSAVAFGALLSRGIGDTIRVSLSAPPVEEVKVGNQVLESLNLRPRSLEIVSCPSCGRAQVDVYTLANEVTAGLDGLDVPLRVAVMGCVVNGPGEAREADLGVASGNGKGQIFVRGEVIKTVPEAQIVETLIEEAMRLAAEMGEQDPGATPSGSPIVTVS | soluble |
| MSIDRTSPLKPVSTVQTRETSDTPVQKTRQEKTSAATSASVTLSDAQAKLMQPGVSDINMERVEALKTAIRNGELKMDTGKIADSLIREAQSYLQSK | not soluble |
| MPNPRRIVFGDVHGHFDALTALFEAIAPNERDGVYFVGDLIDRGPESAKVVDFVMENKYHCLLGNHEQMMLDAVGGFNFSPQLLHAWIYSGGKSTLESYEHQIPQSHVDWMRNLPLYLDLGDVWLVHAGVDPRLPIEEQGEAQFCWIRDEFHRYPYPYFANKLIITGHTITFTFANVEPGKLVSGPGWLDIDTGAYHPKSGWLTALELNNQEVYQAHIFTNEVRRLPLEDAVVPLEHHHHHH | soluble |
| MGSDKIHHHHHHMKRVIINADDFGLSDGVNRAVIKAWQEGILTSASLMVGGDAFHEAVHLAKANPGLHVGLHLTLVQGRAVGEHGGFPSICDSKGAFSDDPVQTGMRYFFIRSFRKQLYREIEAQIVRFLQTGLPLSHVDGHLNIHMHPVVFDLLCGLMRKHGITTFRLCRENLRANLTLDRERRFGKMVDAFIFSKLAGRCRPILDHLGIGYAQEVKGLLNSGRMTEEYLLRVLDTLEDGTTELYFHPGCLPCAEITRRMPDYRHEEELAALMSPRVKGRLKELGIELGNYRGEVKTYV | not soluble |
| MSDEKSTTPTAQLDAPADGNMNDLTSLIQGVLQQTQDRFQHMSDQIIRRIDDMTTRIDDLEKNINDLLQSNQVEHPPSAQ | not soluble |
